The target of experiment [1] is full length MMP-1 (human). The experiment can be described thus: enzyme activity of pre-formed complexes against synthetic substrates; 10 nM [35S]TIMP-3 incubated with an equimolar concentration of metalloproteinase for 1 h at 37 °C; complex formation and stability over 24 h checked by activity.
In experiment [2] the target is ADAMTS-5 (of the inhibition assays) (UniProt Q9UNA0). The experiment can be described thus: enzyme inhibition kinetics (fluorogenic peptide substrates); apparent Ki; enzyme pre-incubated with TIMP-3 (0.5-100 nM) 1 h at 37 °C, equilibrium rate of substrate hydrolysis; TNC buffer (50 mM Tris-HCl pH 7.5, 150 mM NaCl, 10 mM CaCl2, 0.05% Brij-35, 0.02% NaN3), 37 °C; tight-binding equation.

Sequence of full length MMP-1 (human) (P03956 100-469): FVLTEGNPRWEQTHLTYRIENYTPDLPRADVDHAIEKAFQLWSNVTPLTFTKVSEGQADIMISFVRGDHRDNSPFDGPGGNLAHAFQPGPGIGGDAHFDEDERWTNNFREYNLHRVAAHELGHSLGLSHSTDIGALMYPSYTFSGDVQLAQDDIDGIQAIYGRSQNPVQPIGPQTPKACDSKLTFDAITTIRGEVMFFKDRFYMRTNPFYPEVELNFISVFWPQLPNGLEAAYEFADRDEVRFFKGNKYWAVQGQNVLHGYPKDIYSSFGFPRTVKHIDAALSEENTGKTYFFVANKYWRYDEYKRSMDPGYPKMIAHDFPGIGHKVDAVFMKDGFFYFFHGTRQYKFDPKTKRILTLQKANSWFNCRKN

B1: FLAG-tagged TIMP-3 (natural protein)
chain: CTCSPSHPQDAFCNSDIVIRAKVVGKKLVKEGPFGTLVYTIKQMKMYRGFTKMPHVQYIHTEASESLCGLKLEVNKYQYLLTGRVYDGKMYTGLCNFVERWDQLTLSQRKGLNYRYHLGCNCKIKSCYYLPCFVTSKNECLWTDMLSNFGYPGYQSKHYACIRQKGGYCSWYRGWAPPDKSIINATDP
For B1, the stoichiometry N in experiment [1] stood at 1. For the same molecule, the Ki in experiment [2] stood at 1.91 nM.

Broadly, the stoichiometry N is the number of molecules, sites or subunits per partner or assembly.

The values are drawn from publication PMC7374751.
